{
  "source": "patent US7794927B2",
  "about": "“Method for identifying agonists or antagonists of the G-protein coupled receptor mas-like 1” (priority 2002, dated 2010)",
  "key": {"[1]": {"biological_target": "T1, G protein-coupled receptor mas-like 1 (Homo sapiens, UniProt Q96LB1)", "T1 construct": "The receptor has therefore been amplified starting from genomic DNA using a polymerase chain reaction (PCR); expressed in transfected cells; host or cells: CHO-K1 (transient, pcDNA3.1)", "T1 sequence (Q96LB1 1-330)": "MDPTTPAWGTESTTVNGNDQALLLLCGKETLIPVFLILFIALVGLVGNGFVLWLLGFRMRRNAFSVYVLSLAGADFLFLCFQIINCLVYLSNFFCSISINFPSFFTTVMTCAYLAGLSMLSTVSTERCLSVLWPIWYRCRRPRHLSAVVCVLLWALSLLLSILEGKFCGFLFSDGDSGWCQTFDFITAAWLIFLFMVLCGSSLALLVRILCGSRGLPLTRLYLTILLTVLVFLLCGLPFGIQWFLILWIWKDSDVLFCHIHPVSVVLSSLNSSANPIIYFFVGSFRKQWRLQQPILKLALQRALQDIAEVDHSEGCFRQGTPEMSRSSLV", "experiment": "FLIPR assay of stimulation of mas-like 1 transiently expressed in CHO-K1 cells (Fluo4 Ca2+ fluorescence)", "type": "cell-based", "conditions": "for formation of fluorescence in the cells: CHO-K1 cells transiently expressing mas-like 1, zero value about 20 fluorescence intensity units; for agonistic effects on mas-like 1: test system designed in accordance with the detection method", "method": "CHO-K1 cells were cultivated in basal Iscove's medium supplemented with 10% fetal bovine serum, 10 000 U/ml-10 000 μg/ml penicillin-streptomycin, gentamycin and 2 mM glutamine.\nIscove's medium is commercially available inter alia from Biochrom, Berlin. The composition of Iscove's medium is described in “Iscove, N. N., Melchers, F., Journal of Experimental Medicine 147, 923-933 (1978)”. The CHO-K1 cells were applied in an amount of 2×10^5 cells to a 35 mm culture dish for the transient transfection. The cells were transfected after incubation for about 24 hours or at a confluence of 50-80% with 2 μg of DNA using Lipofectamine reagent which is commercially available inter alia from Invitrogen Life Technologies, Karlsruhe.\nAbout 16 to 18 hours after the transfection, the cells were transferred into 96-well microtiter plates with a density of about 80 000 cells per well. Incubation was then continued for 18 to 24 hours. After this, 95 μl of HBSS (Hank's buffered saline solution) which contained 20 mM HEPES, 2.5 mM probenecid, 4 μM Fluo4 and 1% fetal bovine serum were added, and incubation was carried out in the presence of 5% CO2 at 37° C. for 1 hour. Fluo4 is a dye which fluoresces in the presence of Ca^2+. Fluo4 is sold commercially inter alia by Molecular Probes Europe BV, Leiden. After the incubation, the cells were washed three times with PBS (phosphate buffered saline) which contained 1 mM MgCl2, 1 mM EDTA and 2.5 mM probenecid.\nAfter the last washing step, about 100 μl of the solution were left on the cells in each well. The peptides to be tested were dissolved in water or DMSO (dimethyl sulfoxide) in a concentration of 2 mM. The appropriate dilutions of the final concentration ([…]) were prepared starting from such a stock solution. The fluorescence was measured using a FLIPR (Fluorometric Imaging Plate Reader; Molecular Devices GmbH, Ismaning) for a total of 3 minutes at 1-second intervals for the first minute and at 3-second intervals during the second and third minute. The measurements between 18 seconds and 37 seconds were used to determine the agonistic effect.\nVarious peptides were tested for their property of stimulating the G protein-coupled receptor mas-like 1. The test was carried out using FLIPR technology. The receptor was for this purpose transiently expressed in CHO-K1 cells."}, "[2]": {"biological_target": "T1, G protein-coupled receptor mas-like 1", "experiment": "Arachidonic acid liberation in transiently transfected CHO-K1 cells", "type": "cell-based"}},
  "note": "Ends that are not written are not given here.",
  "data": [
    {"substance": "H-Phe-Leu-Phe-Gln-Pro-Gln-Arg-Pro-NH2 (H-FLFQPQRP-NH2; listed as Homo sapiens) [neuropeptide FF, natural ligand of mas-like 1]", "values": [
      {"measurement": "formation of fluorescence in the cells", "setting": "[1]", "value": "ca. 2 000 fluorescence intensity units"}
    ]},
    {"substance": "PKPQQFFGLM [substance P2-11]", "values": [
      {"measurement": "formation of fluorescence in the cells", "setting": "[1]", "value": "ca. 2 500 fluorescence intensity units"},
      {"measurement": "concentration dependence of activation of the receptors", "setting": "[1]; concentration range from 5×10^−6 to 1×10^−5M", "value": "linear dependence"},
      {"measurement": "liberation of arachidonic acid", "setting": "[2]", "value": "liberated arachidonic acid"}
    ]},
    {"substance": "substance P1-9: N-terminal fragment of substance P, SEQ ID NO:12 (RPKPQQFFG; listed as Homo sapiens)", "values": [
      {"measurement": "agonistic effects on mas-like 1", "setting": "[1]", "value": "Agonistic effects were shown"}
    ]},
    {"substance": "substance P4-11: fragment of substance P, SEQ ID NO:11 (PQQFFGL; listed as Homo sapiens)", "values": [
      {"measurement": "agonistic effects on mas-like 1", "setting": "[1]", "value": "Agonistic effects were shown"}
    ]}
  ]
}
